Experimental data from patent US20220098328A1, “ANTIBODIES TO M(H)DM2/4 AND THEIR USE IN DIAGNOSING AND TREATING CANCER” (NomoCan Pharmaceuticals LLC, priority 2017, published 2022).
Entries after “also recorded” stand apart in the source; their conditions may differ.

Key:
Experiment in all cases: Cell-ELISA on intact cells
Assay type in all cases: cell-based
[1] = test system: human pancreatic cancer MIA PaCa-2 cells; conditions: for binding to intact, EDTA-released MiaPaCa-2 cells, cell-ELISA: EDTA 10 mmols, pH 7.2, 5 min, 37° C.; for relative binding (reactivity) to intact cells, cell-ELISA: MIA PaCa-2, mAb 1 μg/mL, fixed, non-permeabilized cells; for binding to intact MIA PaCa-2 cells when competed with NMC-P2 peptide / binding to intact MIA PaCa-2 cells when competed with soluble NMC-P1 peptide: cell-ELISA peptide competition
Experimental: (§1) Cell-ELISA Methodology: 8,000-10,000 cells/well of a 96-well microplate were grown overnight. The next day, unbound cells were washed off with sterile 1×PBS. The cells in each well were fixed with freshly prepared 4% buffered paraformaldehyde (pH 7.2) for 1 hour followed by 3 washes with 1×PBS. The wells were then blocked with 5% BSA in PBS (100 μl/well) for 2 hours at room temperature. Microplate wells were then washed 5 times with 300 μl of ice cold 1×PBS. MAbs NMC-103, NMC-204 or NMC-303 at 1 μg/mL in 1% BSA/PBS were then incubated with various cancer or normal untransformed cells for 2 hours at room temperature. Wells were then washed with 300 μl of ice-cold 1×PBS for 5 times and corresponding secondary antibody HRP-GaM F(ab′)2 diluted 1:2500 or 1:5000 in PBS with 1% BSA were added at 100 μl/well for 1 hour at room temperature followed by washing 5 times with 300 μl of ice-cold 1×PBS. TMB Substrate Solution (1-Step™ Ultra TMB-ELISA, ThermoFisher, Cat. No. 34028) was then added at 50 μL to each microplate well and incubated at room temperature for 30 minutes. The reaction was stopped by addition of 50 μL of stop solution (ThermoFisher, Cat. No. SS04) to each well and absorbance of each well was measured at OD450 nm. The absorbance value of each experimental well was corrected for the absorbance value obtained from wells treated with isotype-identical mAbs included in each experiment. The results are thus expressed as “relative binding”.
(§2) In a 96-well microplate, 15,000 cells/well were cultured overnight. The next day, unbound cells were washed off with sterile 1×PBS. The cells in each well were fixed with freshly prepared 4% buffered paraformaldehyde (pH 7.2) for 1 hour, followed by 3 washes with 1×PBS. The wells were then blocked with 5% BSA in PBS (100 μl/well) for 2 hours at room temperature. Microplate wells were then washed 5 times with 300 μl of ice cold 1×PBS. Monoclonal antibodies NMC-H103 (VH4/VK3) or NMC-C303 at 5 μg/mL in 1% BSA/PBS were then incubated with various cancer cells for 2 hours at room temperature. Wells were then washed with 300 μl of ice-cold 1×PBS for 5 times and corresponding secondary antibody HRP-GaH F(ab′)2 diluted 1:2000 or 1:4000 in PBS with 1% BSA were added at 100 μl/well for 1 hour at room temperature followed by washing 5 times with 300 μl of ice-cold 1×PBS. TMB Substrate Solution (1-Step™ Ultra TMB-ELISA, ThermoFisher, Cat. No. 34028) was then added at 50 μL to each microplate well and incubated at room temperature for 30 minutes. The reaction was stopped by addition of 50 μL of stop solution (ThermoFisher, Cat. No. SS04) to each well and absorbance of each well was measured at OD450 nm. The absorbance value of each experimental well was corrected for the absorbance value obtained from wells treated with isotype-identical mAbs included in each experiment.

[2] = test system: mouse pancreatic Panc02 cells; conditions: for relative binding (reactivity) to intact cells, cell-ELISA: Panc02, mAb 1 μg/mL, fixed, non-permeabilized cells
Experimental: as §1, §2

[3] = test system: human ovarian cancer OVCAR-3 cells; conditions: for relative binding (reactivity) to intact cells, cell-ELISA: OVCAR-3 (resistant to adriamycin, melphalan, cisplatin), mAb 1 μg/mL, fixed, non-permeabilized cells
Experimental: as §1, §2

[4] = test system: mouse colon cancer MC-38 cells; conditions: for relative binding (reactivity) to intact cells, cell-ELISA: MC-38, mAb 1 μg/mL, fixed, non-permeabilized cells
Experimental: as §1, §2

[5] = test system: human breast cancer MCF-7 cells; conditions: for relative binding (reactivity) to intact cells, cell-ELISA: MCF-7, mAb 1 μg/mL, fixed, non-permeabilized cells
Experimental: as §1, §2

[6] = test system: primary patient-derived human ovarian cancer OVCA4 cells; conditions: for relative binding (reactivity) to intact cells, cell-ELISA: OVCA4, mAb 1 μg/mL, fixed, non-permeabilized cells
Experimental: as §1, §2

[7] = test system: mouse Lewis Lung LL/2 cells; conditions: for relative binding (reactivity) to intact cells, cell-ELISA: LL/2, mAb 1 μg/mL, fixed, non-permeabilized cells
Experimental: as §1, §2

[8] = test system: human melanoma A2058 cells; conditions: for relative binding (reactivity) to intact cells, cell-ELISA: A2058, mAb 1 μg/mL, fixed, non-permeabilized cells
Experimental: as §1, §2

| Molecule | binding to intact, EDTA-released MiaPaCa-2 cells, cell-ELISA [1] | relative binding (reactivity) to intact cells, cell-ELISA [1] | binding to intact MIA PaCa-2 cells after pre-incubation with full-length recombinant HDM2 ([1]; cell-ELISA competition) | binding to intact MIA PaCa-2 cells when competed with NMC-P2 peptide [1] | binding to intact MIA PaCa-2 cells when competed with soluble NMC-P1 peptide [1] | relative binding (reactivity) to intact cells, cell-ELISA [2] | relative binding (reactivity) to intact cells, cell-ELISA [3] | relative binding (reactivity) to intact cells, cell-ELISA [4] | relative binding (reactivity) to intact cells, cell-ELISA [5] | relative binding (reactivity) to intact cells, cell-ELISA [6] | relative binding (reactivity) to intact cells, cell-ELISA [7] | relative binding (reactivity) to intact cells, cell-ELISA [8] | binding to intact, un-permeabilized cells, cell-based ELISA ([1]; MIAPaCa-2 pancreatic cancer cells, mAb 5 μg/mL) | binding to intact, un-permeabilized cells, cell-based ELISA ([2]; Panc-2 pancreatic cancer cells, mAb 5 μg/mL) | binding to intact, un-permeabilized cells, cell-based ELISA ([3]; OVCAR-3 ovarian cancer cells, mAb 5 μg/mL) | binding to intact, un-permeabilized cells, cell-based ELISA ([4]; MC-38 colon cancer cells, mAb 5 μg/mL) | binding to intact, un-permeabilized cells, cell-based ELISA ([5]; MCF-7 breast cancer cells, mAb 5 μg/mL) | binding to intact, un-permeabilized cells, cell-based ELISA ([6]; OVCA-4 ovarian cancer cells, mAb 5 μg/mL) | OD reading / binding after pre-incubation of antibody with NMC-P1 ([7]; LL/2 cells, antibody 5 μg/mL, NMC-P1 at ×10 the concentration of mAbs) | binding to intact, un-permeabilized cells, cell-based ELISA ([8]; mAb 5 μg/mL) |
| --- | --- | --- | --- | --- | --- | --- | --- | --- | --- | --- | --- | --- | --- | --- | --- | --- | --- | --- | --- | --- |
| NMC-103: mouse monoclonal antibody of the IgG1 isotype that binds to NMC-P1 (SEQ ID NO:1); VH SEQ ID NO:36, VL SEQ ID NO:37 (antibody, V domains shown, mAb NMC-103 Heavy Chain Variable Region; mAb NMC-103 Light Chain Variable Region) VH: EVQLQESGGGLVQPGGSLRLSCTTSGFTFTHYYMSWVRQPPGKALEWLGFIRNKAKGYTAEYSASVKGRFTISRDNSQSILYLQMNTLRPEDSATYYCARDIGDNWGQGTLVTVSS VL: DIVMTQAAFSNPVTLGTSASISCRSSKNLLHSNGITYLYWYLQRPGQSPQLLISRVSNLASGVPNRFSGSESGTDFTLRISRVEAEDVGVYFCAQLLELPYTFGGGTKLEIK | bound | reactivity | reduced | did not have any effect | completely abolished | reactivity | reactivity | reactivity | reactivity | reactivity | reactivity | reactivity |  |  |  |  |  |  |  |  |
| NMC-204: mouse monoclonal antibody of the IgG3 isotype that binds to NMC-P2 (SEQ ID NO:2); VH SEQ ID NO:38, VL SEQ ID NO:39 (antibody, V domains shown, mAb NMC-204 Heavy Chain Variable Region; mAb NMC-204 Light Chain Variable Region) VH: EVQLQESGSVLVRPGASVKLSCKASGDTLSGSWMHWAMQRPGQGLEWIGEIHLNRGTTNYNEKFKGKATVTVDTSSSTAYVDLSSLTSEDSAVYYCARSPGFAYWGQGTLVTVSA VL: GIVMTQAAPSVPVTPGESVSISCRSSKSLLHSNGNSYLYWFLQRPGQSPQLLIYRMSNLASGVPDRFSGSGSGTAFTLRITRVEAEDVGVYYCMQHLEYPFTFGSGTKLEIK | bound | reactivity; also recorded: reacted |  | competed | not with NMC-P1 | reactivity | reactivity | reactivity | reactivity | reactivity | reactivity | reactivity |  |  |  |  |  |  |  |  |
| NMC-H103 (VH4/VK3): humanized NMC-103 variant, human IgG1, VH4 (SEQ ID NO:299) and VK3 (SEQ ID NO:297) (antibody, V domains shown, human IgG1 constant regions lacking entries; mAb NMC-H103.VH4Heavy Chain Variable Region; mAb NMC-H103.VK3Light Chain Variable Region) VH: EVQLVESGGGLVQPGPSLRLSCTTSGFTFTHYYMSWVRQAPGKGLEWLGFIRNKAKGYTAEYSASVKGRFTISRDNSKSTLYLQMNSLRAEDTAVYYCARDIGDNWGQGTLVTVSS VL: DIVMTQTPLSSPVTLGQPASISCRSSKNLLHSNGITYLYWYLQKPGQSPQLLISRVSNLASGVPDRFSGSESGTDFTLKISRVEAEDVGVYFCAQLLELPYTFGGGTKVEIK |  |  |  |  |  |  |  |  |  |  |  |  | binding | binding | binding | binding | binding | binding | 1.09 OD450 (absorbance, unitless) | binding |
